Biological target: keyhole limpet haemocyanin
Test: ELISA, KLH coated, 100 nM antibody

Row | absorbance ratio to PBS blank | Substance
1 | 1.03 | Adalimumab (antibody)
2 | 1.15 | Ofatumumab (antibody)

Reference: patent publication US20240409635A1
